Experimental findings from article PMC4330388 are described below.

The data set has as its target T1, PPR10 (Zea mays, UniProt B8Y6I0 96-786).
T1 sequence: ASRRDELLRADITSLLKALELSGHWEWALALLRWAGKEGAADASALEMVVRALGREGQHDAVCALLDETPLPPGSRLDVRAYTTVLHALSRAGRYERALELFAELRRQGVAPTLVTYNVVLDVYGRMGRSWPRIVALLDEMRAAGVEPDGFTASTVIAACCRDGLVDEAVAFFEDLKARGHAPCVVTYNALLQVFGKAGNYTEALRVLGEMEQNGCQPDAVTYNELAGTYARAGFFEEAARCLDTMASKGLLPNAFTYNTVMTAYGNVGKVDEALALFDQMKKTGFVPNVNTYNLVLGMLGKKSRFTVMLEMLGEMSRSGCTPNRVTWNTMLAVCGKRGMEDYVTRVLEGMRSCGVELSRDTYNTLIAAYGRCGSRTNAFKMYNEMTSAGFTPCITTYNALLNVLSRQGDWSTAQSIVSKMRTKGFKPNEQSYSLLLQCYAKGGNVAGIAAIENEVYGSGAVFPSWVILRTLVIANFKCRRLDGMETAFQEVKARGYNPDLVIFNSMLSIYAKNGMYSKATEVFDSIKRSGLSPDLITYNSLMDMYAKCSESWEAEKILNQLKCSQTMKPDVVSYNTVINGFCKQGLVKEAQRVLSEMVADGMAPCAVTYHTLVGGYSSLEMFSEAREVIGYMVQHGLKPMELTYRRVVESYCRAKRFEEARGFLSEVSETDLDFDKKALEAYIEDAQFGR
The data set is described as follows: SEC-SAXS.

B1: atpH RNA 17-mer (ssRNA)
RNA: GUAUCCUUAACCAUUUC
In the case of B1, the binding result was “binds”.
